Here are results for seven molecules from patent publication US20230158141A1 (YAFEI SHANGHAI BIOLOG MEDICINE SCIENCE AND TECHNOLOGY, published 2023).

The target in test [1] is PD-1 (UniProt Q15116 25-167, limits assumed). Briefly: ELISA, OD mutant/OD WT; ↓=less than 70%. In general terms: ELISA stands for enzyme-linked immunosorbent assay.
The target in test [2] is T1, PD-1 (UniProt Q15116 25-167, limits assumed).
T1 construct: also called PD-1 antigen
Put plainly: ELISA, EC50 fold change; S47 on the Cys.

Test [3] concerns the target His tagged VEGF protein (UniProt P15692-4 27-191, limits assumed). Briefly: ELISA, His tagged VEGF protein.
The target of test [4] is T2, IL2Rβ-Fc (UniProt P14784 27-239, limits assumed).
T2 construct: also called IL2Rb; not shown: Fc part, not described
T2 sequence (looked up): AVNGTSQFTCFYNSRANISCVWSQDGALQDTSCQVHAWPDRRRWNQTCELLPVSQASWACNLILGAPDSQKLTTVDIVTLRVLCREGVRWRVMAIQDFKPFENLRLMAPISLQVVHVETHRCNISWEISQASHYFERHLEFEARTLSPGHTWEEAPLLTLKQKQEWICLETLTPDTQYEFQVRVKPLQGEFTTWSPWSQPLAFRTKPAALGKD
Put plainly: ELISA, against wild type IL2.

For test [5], the target named is T3, human Fc tagged PD-1 protein (Sino Biological) (human, UniProt Q15116 25-167).
T3 construct: bought; also called Fc tagged human PD-1 protein
T3 sequence (Q15116 25-167 limits assumed): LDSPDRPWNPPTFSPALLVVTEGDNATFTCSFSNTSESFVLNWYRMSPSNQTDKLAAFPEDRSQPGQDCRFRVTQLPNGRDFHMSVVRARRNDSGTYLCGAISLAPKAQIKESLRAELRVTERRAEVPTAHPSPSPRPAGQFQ
Briefly: ELISA, EC50 fold change; S47 on the Cys.

For test [6], the target named is mouse CTLA-4 protein (mouse, UniProt P09793 36-162, limits assumed). Briefly: ELISA, TMEAbody against WT 9D9.
Test [7] concerns the target T4, mouse PD-1 protein (mouse, UniProt Q02242 25-167, limits assumed).
T4 sequence (looked up): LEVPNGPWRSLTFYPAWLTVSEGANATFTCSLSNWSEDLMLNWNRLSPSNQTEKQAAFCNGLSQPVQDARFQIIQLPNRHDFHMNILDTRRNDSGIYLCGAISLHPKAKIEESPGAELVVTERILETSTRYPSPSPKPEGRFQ
Briefly: ELISA, TMEAbody against WT J43v2.

Some results are limits rather than exact numbers.

His tagged VEGF protein, sequence (P15692 other isoform, or with tags, fused parts or gaps limits assumed): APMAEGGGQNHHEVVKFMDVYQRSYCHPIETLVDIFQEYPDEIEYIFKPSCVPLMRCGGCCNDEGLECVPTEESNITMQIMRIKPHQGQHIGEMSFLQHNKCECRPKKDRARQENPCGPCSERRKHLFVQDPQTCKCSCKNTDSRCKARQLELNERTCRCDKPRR

B1: anti-PD-1 antibody 2 light chain Y32C (antibody, human IgG4 S228P, kappa, V domains shown)
VH: QVQLVESGGGVVQPGRSLRLDCKASGITFSNSGMHWVRQAPGKGLEWVAVIWYDGSKRYYADSVKGRFTISRDNSKNTLFLQMNSLRAEDTAVYYCATNDDYWGQGTLVTVSS
VL: EIVLTQSPATLSLSPGERATLSCRASQSVSSCLAWYQQKPGQAPRLLIYDASNRATGIPARFSGSGSGTDFTLTISSLEPEDFAVYYCQQSSNWPRTFGQGTKVEIKR
In the case of B1, the “binding activity vs wild type” value in test [1] is less than 70%.

B2: Niv-se007 (Nivolumab light chain Ser91Cys) (antibody, human IgG4 S228P, kappa, V domains shown)
VH: QVQLVESGGGVVQPGRSLRLDCKASGITFSNSGMHWVRQAPGKGLEWVAVIWYDGSKRYYADSVKGRFTISRDNSKNTLFLQMNSLRAEDTAVYYCATNDDYWGQGTLVTVSS
VL: EIVLTQSPATLSLSPGERATLSCRASQSVSSYLAWYQQKPGQAPRLLIYDASNRATGIPARFSGSGSGTDFTLTISSLEPEDFAVYYCQQCSNWPRTFGQGTKVEIKR
modifications: Cys at 91 carries the group named in the row
Take B2: the “Blocking efficiency of S47” value in test [2] came out at 25 fold.

B3: Beva-se001 conjugated to S47 (antibody, human IgG1, kappa, V domains shown)
VH: EVQLVESGGGLVQPGGSLRLSCAASGYTFTNYGMNWVRQAPGKGLEWVGWINTYTGEPTYAADFCRRFTFSLDTSKSTAYLQMNSLRAEDTAVYYCAKYPHYYGSSHWYFDVWGQGTLVTVSS
VL: DIQMTQSPSSLSASVGDRVTITCSASQDISNYLNWYQQKPGKAPKVLIYFTSSLHSGVPSRFSGSGSGTDFTLTISSLQPEDFATYYCQQYSTVPWTFGQGTKVEIKR
modifications: S47 on Cys 65
notes: Bevacizumab mutant
Regarding B3, in test [3], the “Blocking efficiency of S47” value was determined as 9 fold.

B4: chemically modified IL2 Arg38Asp/Glu61Arg with Lys9 and Lys76 conjugated with R4-7 (other)
chain: APASSTKCTQLQLEHLLLDLQMILNGINNYKNPKLTDMLTFKFYMPKKATELKHLQCLERELKPLEEVLNLAQSCNFHLRPRDLISNINVIVLELKGSETTFMCEYADETATIVEFLNRWITFSQSIISTLT
modifications: R4-7 on Cys 9 and Cys 76
notes: also called a new chemically modified IL2
Take B4: the “fold increase of binding” value in test [4] came out at 1.35 fold.

B5: Pem-se007 (Pembrolizumab light chain Gly28Cys) (antibody, human IgG4 S228P, kappa, V domains shown)
VH: QVQLVQSGVEVKKPGASVKVSCKASGYTFTNYYMYWVRQAPGQGLEWMGGINPSNGGTNFNEKFKNRVTLTTDSSTTTAYMELKSLQFDDTAVYYCARRDYRFDMGFDYWGQGTTVTVSS
VL: EIVLTQSPATLSLSPGERATLSCRASKCVSTSGYSYLHWYQQKPGQAPRLLIYLASYLESGVPARFSGSGSGTDFTLTISSLEPEDFAVYYCQHSRDLPLTFGGGTKVEIKR
modifications: Cys at 28 carries the group named in the row
For B5, in test [5], the “Blocking efficiency of S47” value amounted to 8 fold.

B6: 9D9 TMEAbody (anti-mouse CTLA-4 antibody 9D9, Tyr54 on LC) (antibody, mouse IgG2b, kappa)
heavy: EAKLQESGPVLVKPGASVKMSCKASGYTFTDYYMNWVKQSHGKSLEWIGVINPYNGDTSYNQKFKGKATLTVDKSSSTAYMELNSLTSEDSAVYYCARYYGSWFAYWGQGTLITVSTAKTTPPSVYPLAPGCGDTTGSSVTLGCLVKGYFPESVTVTWNSGSLSSSVHTFPALLQSGLYTMSSSVTVPSSTWPSQTVTCSVAHPASSTTVDKKLEPSGPISTINPCPPCKECHKCPAPNLEGGPSVFIFPPNIKDVLMISLTPKVTCVVVDVSEDDPDVQISWFVNNVEVHTAQTQTHREDYNSTIRVVSTLPIQHQDWMSGKEFKCKVNNKDLPSPIERTISKIKGLVRAPQVYILPPPAEQLSRKDVSLTCLVVGFNPGDISVEWTSNGHTEENYKDTAPVLDSDGSYFIYSKLNMKTSKWEKTDSFSCNVRHEGLKNYYLKKTISRSPGK
light: DIVMTQTTLSLPVSLGDQASISCRSSQSIVHSNGNTYLEWYLQKPGQSPKLLICKVSNRFSGVPDRFSGSGSGTDFTLKISRVEAEDLGVYYCFQGSHVPYTFGGGTKLEIKRADAAPTVSIFPPSSEQLTSGGASVVCFLNNFYPKDINVKWKIDGSERQNGVLNSWTDQDSKDSTYSMSSTLTLTKDEYERHNSYTCEATHKTSTSPIVKSFNRNEC
modifications: functional moiety on Cys 54 (which R1-R2-R3-R4 is not stated)
notes: mIgG2b isotype
For B6, the “blocking efficiency (fold)” value in test [6] is 26 fold.

B7: J43v2 TMEAbody (anti-mouse PD-1 antibody J43v2, Ser95 on LC) (antibody, mouse IgG2a, V domains shown)
VH: EVRLLESGGGLVKPEGSLKLSCVASGFTFSDYFMSWVRQAPGKGLEWVAHIYTKSYNYATYYSGSVKGRFTISRDDSRSMVYLQMNNLRTEDTATYYCTRDGSGYPSLDFWGQGTQVTVSS
VL: YELTQPPSASVNVGETVKITCSGDQLPKYFADWFHQRSDQTILQVIYDDNKRPSGIPERISGSSSGTTATLTIRDVRAEDEGDYYCFSGYVDSDCKLYVFGSGTQLTVLG
modifications: functional moiety on Cys 95 (which R1-R2-R3-R4 is not stated)
notes: Heavy chain re-formatted into mouse IgG2a
As for B7, the “blocking efficiency (fold)” value in test [7] was determined as 35 fold.
